Experimental data: patent US20070093415A1
Read-outs that look alike come from different tables or passages of the source.

What was measured:
[1] = target: Aβ1-40 amyloid (amyloid form of the Aβ1-40 peptide); assay: ELISA on immobilized Aβ1-40 amyloid, anti-Thio detection
[2] = target: Aβ1-40 amyloid (amyloid form of the Aβ1-40 peptide); assay: as above; remark: listed apart in the source

Sequence of Thio (recombinant thioredoxin without the Aβ-peptide binding sequence) (P0AA25 2-109): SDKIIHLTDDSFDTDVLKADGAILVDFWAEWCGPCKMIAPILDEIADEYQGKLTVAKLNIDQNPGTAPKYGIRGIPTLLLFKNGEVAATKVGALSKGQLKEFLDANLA

Work on “Thio (recombinant thioredoxin without the Aβ-peptide binding sequence) (from UniProt P0AA25 2-109)” yielded a concentration below which no binding was seen [1] of over 100 µM and a concentration below which no binding was seen [2] of over 200 µM.
